Measurements taken from patent publication US20180312587A1 (ADURO BIOTECH HOLDINGS EUROPE B V, published 2018).

How the values were obtained:
[1] = target: T1, human SIRPα variant 1 (human, UniProt P78324 31-504); assay: CELISA, CHO-K1 transfectants
T1 construct: full length ORF on transfected CHO-K1 or HEK293 cells; entry includes the signal peptide; also called hSIRPαV1; SIRPαV1
Description: (§1) The specificity of monoclonal anti-hSIRPα antibodies (e.g., including the hSIRPα antibodies known in the art, KWAR23 (U.S. Patent CA2939293 A1), 18D5 (Patent WO2017/178653 A2), and various commercially available hSIRPα antibodies) for binding to hSIRPαV1, hSIRPαV1(P74A), and hSIRPβ1 was evaluated by CELISA. Reactivity was confirmed using CHO-K1 cells (ATCC CCL-61) expressing a cDNA encoding the full length open reading frame of hSIRPαV1, hSIRPαV1(P74A), and hSIRPβ1 subcloned into the pCI-neo vector (Promega, Madison, Wis.). CHO-K1.hSIRPαV1, CHO-K1.hSIRPαV1(P74A), and CHO-K1.hSIRPβ1 cells were seeded in culture medium (DMEM-F12 (Gibco) supplemented with 5% New Born Calf Serum (BioWest) and Pen/Strep (Gibco)) in 96-well flat-bottom tissue culture plates and incubated at 37° C., 5% CO₂ and 95% humidity for 24 hours. Subsequently, culture medium was removed and cells were incubated for 1 hour at 37° C., 5% CO₂ and 95% humidity with purified hSIRPα antibodies (used at 10 μg/ml and dilutions thereof). Next, cells were washed with PBS-T and incubated for 1 hour at 37° C., 5% CO₂ and 95% humidity with either goat-anti-mouse IgG-HRP (Southern Biotech), goat-anti-human IgG-HRP (Jackson Immuno Research), or goat-anti-rabbit IgG-HRP (Southern Biotech). Subsequently, cells were washed three times with PBS-T and immunoreactivity against hSIRPαV1, hSIRPαV1(P74A), and hSIRPβ1 was visualized with TMB Stabilized Chromogen (Invitrogen). Reactions were stopped with 0.5 M H₂SO₄ and absorbances were read at 450 and 610 nm.

[2] = target: T2, human SIRPα variant 2 (human, UniProt P78324 31-504); assay: CELISA, CHO-K1 transfectants
T2 construct: full length ORF on transfected CHO-K1 cells; also called hSIRPαV2; SIRPαV2
T2 sequence (P78324 other isoform, or with tags, fused parts or gaps mutant limits assumed): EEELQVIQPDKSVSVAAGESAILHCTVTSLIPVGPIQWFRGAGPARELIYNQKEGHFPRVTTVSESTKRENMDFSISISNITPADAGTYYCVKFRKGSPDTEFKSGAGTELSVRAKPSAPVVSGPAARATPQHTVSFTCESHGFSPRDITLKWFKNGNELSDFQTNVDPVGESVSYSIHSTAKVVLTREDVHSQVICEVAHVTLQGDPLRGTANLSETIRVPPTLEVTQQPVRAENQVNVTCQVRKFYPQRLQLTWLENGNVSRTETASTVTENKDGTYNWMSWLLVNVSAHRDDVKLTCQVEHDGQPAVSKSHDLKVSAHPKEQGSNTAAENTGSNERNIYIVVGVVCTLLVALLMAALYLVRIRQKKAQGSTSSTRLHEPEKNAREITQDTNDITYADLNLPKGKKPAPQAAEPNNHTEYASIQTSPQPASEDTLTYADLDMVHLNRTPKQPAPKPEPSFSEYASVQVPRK
Description: as §1, with “Reactivity” for “The specificity of monoclonal anti-hSIRPα antibodies (e.g., including the hSIRPα antibodies known in the art, KWAR23 (U.S. Patent CA2939293 A1), 18D5 (Patent WO2017/178653 A2), and various commercially available hSIRPα antibodies) for binding to hSIRPαV1, hSIRPαV1(P74A), and hSIRPβ1 was evaluated by CELISA. Reactivity”, “hSIRPαV1(P74A), hSIRPαV2,” for “hSIRPαV1(P74A),”, “CHO-K1.hSIRPαV1(P74A), CHO-K1.hSIRPαV2,” for “CHO-K1.hSIRPαV1(P74A),”, “μg/mL” for “μg/ml”, “with” for “with either”, “goat-anti-mouse” for “goat-anti-mouse IgG-HRP (Southern Biotech), goat-anti-human IgG-HRP (Jackson Immuno Research), or goat-anti-rabbit”

[3] = target: T1, human SIRPα variant 1; assay: CELISA, CHO-K1 transfectants; remark: listed apart in the source
Description: as §1, with “Reactivity” for “The specificity of monoclonal anti-hSIRPα antibodies (e.g., including the hSIRPα antibodies known in the art, KWAR23 (U.S. Patent CA2939293 A1), 18D5 (Patent WO2017/178653 A2), and various commercially available hSIRPα antibodies) for binding to hSIRPαV1, hSIRPαV1(P74A), and hSIRPβ1 was evaluated by CELISA. Reactivity”, “hSIRPαV1(P74A), hSIRPαV2,” for “hSIRPαV1(P74A),”, “CHO-K1.hSIRPαV1(P74A), CHO-K1.hSIRPαV2,” for “CHO-K1.hSIRPαV1(P74A),”, “μg/mL” for “μg/ml”, “with” for “with either”, “goat-anti-mouse” for “goat-anti-mouse IgG-HRP (Southern Biotech), goat-anti-human IgG-HRP (Jackson Immuno Research), or goat-anti-rabbit”

[4] = target: T2, human SIRPα variant 2; assay: CELISA, CHO-K1 transfectants, domain exchange study
From the text: (§2) Based on the fold of SIRPα/β1/γ, the extracellular region can be subdivided into three separate domains: the Ig-like (immunoglobulin-like) V-type (IgV), Ig-like C1-type (IgC1), and Ig-like C2-type (IgC2) domain. The IgV domain is also known as the ligand-binding N-terminal domain of SIRPα and SIRPγ (which binds to CD47). The human SIRPβ1/γ mutants were designed based on the full length hSIRPβ1 sequence (SEQ ID NO: 38) and each individual Ig-like domain was substituted for the equivalent domain of human SIRPγ (SEQ ID NO: 40). […] Binding of hSIRPα.40A to the exchange mutants was tested using CELISA. To this end, CHO-K1 cells were transiently transfected, using Lipofectamine 2000, with the pCI-neo vectors encoding hSIRPαV1, hSIRPαV2, hSIRPβ1, hSIRP-VγC1βC2β, hSIRP-VβC1γC2β, and hSIRP-VβC1βC2γ, respectively. The transfected cells were cultured at 37° C., 5% CO₂ and 95% humidity in medium (DMEM-F12 (Gibco) with 5% New Born Calf serum (Biowest) and Pen/Strep (Gibco)) until confluent. Subsequently, cells were trypsinized and seeded in 96-well flat-bottom tissue culture plates and cultured at 37° C., 5% CO₂ and 95% humidity in culture medium until confluent. Then, culture medium was removed and cells were incubated for 1 hour at 37° C., 5% CO₂ and 95% humidity with hSIRPα.40A, hSIRPα.50A, and anti-hSIRPα clone SE5A5 antibodies. Next, cells were washed with PBS-T and incubated for 1 hour at 37° C., 5% CO₂ and 95% humidity with goat-anti-mouse IgG-HRP conjugate (Southern Biotech). After that, cells were washed three times with PBS-T and anti-hSIRPα immunoreactivity was visualized with TMB Stabilized Chromogen (Invitrogen). Reactions were stopped with 0.5 M H₂SO₄ and absorbances were read at 450 and 610 nm.

[5] = target: T1, human SIRPα variant 1; assay: as above
From the text: as §2

T1 sequence (P78324 31-504 limits assumed, change not shown): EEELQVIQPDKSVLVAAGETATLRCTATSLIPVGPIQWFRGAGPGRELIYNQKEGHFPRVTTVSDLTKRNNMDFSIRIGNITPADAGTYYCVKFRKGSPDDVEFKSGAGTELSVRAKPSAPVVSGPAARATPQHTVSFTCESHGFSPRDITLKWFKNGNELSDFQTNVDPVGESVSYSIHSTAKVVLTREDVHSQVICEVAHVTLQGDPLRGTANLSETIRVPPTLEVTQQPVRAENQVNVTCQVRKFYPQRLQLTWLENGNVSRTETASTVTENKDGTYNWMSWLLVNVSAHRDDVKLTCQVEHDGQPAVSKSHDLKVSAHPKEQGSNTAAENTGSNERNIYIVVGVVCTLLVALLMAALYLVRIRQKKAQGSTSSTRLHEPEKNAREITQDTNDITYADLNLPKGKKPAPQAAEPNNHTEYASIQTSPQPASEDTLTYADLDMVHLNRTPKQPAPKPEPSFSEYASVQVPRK

B1: KWAR23 (antibody, V domains shown)
VH: EVQLQQSGAELVKPGASVKLSCTASGFNIKDYYIHWVQQRTEQGLEWIGRIDPEDGETKYAPKFQDKATITADTSSNTAYLHLSSLTSEDTAVYYCARWGAYWGQGTLVTVSS
VL: QIVLTQSPAIMSASPGEKVTLTCSASSSVSSSYLYWYQQKPGSSPKLWIYSTSNLASGVPARFSGSGSGTSYSLTISSMEAEDAASYFCHQWSSYPRTFGAGTKLELK
EC50 [1]: 0.135 nM | EC50 [2]: 0.049 nM | EC50 [3]: 0.07 nM

B2: hSIRPα.40A (antibody, mouse IgG1, kappa, V domains shown)
VH: EVQFQQSGTVLARPGTSVKMSCKASGSTFTSYWMHWVKQGPGQGLQWIGAIYPVNNDTTYNQKFKGKAELTVVTSTSTAYMEVSSLTNEDSAVYYCTRSFYYSLDAAWFVYWGQGTLVTVSA
VL: DIQMTQSPSSLSASLGERVSLTCRASQDIGSRLNWLQQEPDGTIKRLIYATSSLDSGVPKRFSGSRSGSDYSLTISGLESEDFVDYYCLQYASSPFTFGGGTKLEINR
notes: mouse antibody, full chains without signal peptide; also called mouse hSIRPα.40A
EC50 [1]: 0.053 nM | EC50 [2]: 0.093 nM | EC50 [3]: 0.114 nM | EC50 [4]: 0.101 nM | EC50 [5]: 0.133 nM

B3: hSIRPα.50A (antibody, V domains shown)
VH: QVQLQQSGPELVKPGASVRISCKASGFTFTNYYIHWVKQRPGQGLEWIGWIYPGNVNTKYNEKFKAKATLTADKSSTTAYMQLSSLASEDSAVYFCARPTIIATDFDVWGAGTTVTVSS
VL: DIVMTQSHKFMSTSVGDRVNITCKASQGVGTAVGWYQQKPGQSPRLLIYWASTRHTGVPDRFTGSGSGTDFSLAISNVQSEDLADYFCQQYSTYPFTFGGGTNLEIK
notes: light chain constant domain not tied; also called mouse hSIRPα.50A; hSIRPα.50A.mIgG1
EC50 [1]: 0.307 nM | EC50 [2]: 0.645 nM | EC50 [3]: 0.773 nM | EC50 [4]: 0.821 nM | EC50 [5]: 0.968 nM
